Laboratory results reported in PMC4705668.

Target: 111p (modern human L1Pa1 ORF1p) (Homo sapiens, UniProt Q9UN81 1-338)
Test: filter binding; 0.05 M NaCl, 37 C; the three proteins indistinguishable; Filter binding: 20 mM Tris, 10% glycerol, 0.5 mM MgCl2, 0.1 mM DTT, 100 ug/ml BSA, 0.05 M NaCl, 37 C 1 h, 0.1 nM DNA; cross-linking: 20 mM Hepes pH 7.5, 10% gly

Sequence of 111p (modern human L1Pa1 ORF1p) (Q9UN81 whole entry): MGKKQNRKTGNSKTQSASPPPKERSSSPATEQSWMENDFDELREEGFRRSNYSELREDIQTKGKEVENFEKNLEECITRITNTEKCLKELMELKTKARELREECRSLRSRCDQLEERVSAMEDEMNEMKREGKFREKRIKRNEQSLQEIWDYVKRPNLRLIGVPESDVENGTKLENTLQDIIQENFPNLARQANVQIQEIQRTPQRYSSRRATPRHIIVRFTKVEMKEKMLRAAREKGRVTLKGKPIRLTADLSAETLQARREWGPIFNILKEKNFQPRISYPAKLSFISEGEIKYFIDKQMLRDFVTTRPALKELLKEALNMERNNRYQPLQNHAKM

B1: mismatched duplex d29 / d29_c-mm (dsDNA)
DNA 1: AAAAAGTACACAGTCTAACATCAACTCGC
DNA 2: GCGAGTTGACGTCAGACCGTGCACTTTTT
binding result: binds
